This is an account of results in paper PMC6620310, “A ubiquitin-like domain is required for stabilizing the N-terminal ATPase module of human SMCHD1” (Communications Biology, 2019).

Sequences and labels used below:
B1: SMCHD1(24–580) wild-type [human] / itself (parent complex)
chain: GHRTVYLFDRREKESELGDRPLQVGERSDYAGFRACVCQTLGISPEEKFVITTTSRKEITCDNFDETVKDGVTLYLLQSVNQLLLTATKERIDFLPHYDTLVKSGMYEYYASEGQNPLPFALAELIDNSLSATSRNIGVRRIQIKLLFDETQGKPAVAVIDNGRGMTSKQLNNWAVYRLSKFTRQGDFESDHSGYVRPVPVPRSLNSDISYFGVGGKQAVFFVGQSARMISKPADSQDVHELVLSKEDFEKKEKNKEAIYSGYIRNRKPSDSVHITNDDERFLHHLIIEEKEKDSFTAVVITGVQPEHIQYLKNYFHLWTRQLAHIYHYYIHGPKGNEIRTSKEVEPFNNIDIEISMFEKGKVPKIVNLREIQDDMQTLYVNTAADSFEFKAHVEGDGVVEGIIRYHPFLYDRETYPDDPCFPSKLKDEDDEDDCFILEKAARGKRPIFECFWNGRLIPYTSVEDFDWCTPPKKRGLAPIECYNRISGALFTNDKFQVSTNKLTFMDLELKLKDKNTLFTRILNGQEQRMKIDREFALWLKDCHEKYDKQIKFTLFK

In this test the parent is B1. Briefly: native PAGE; parent: 0.098; read off a plot.
Regarding chain 1 E450Q, the screen value is around 0.12.
The value for chain 1 E450G was around 0.2; that for chain 1 Y260C was around 0.012.
As for chain 1 L171F, the screen value is around 0.008.
The value for chain 1 G455E was around 0.01; that for chain 1 S112C was around 0.096.
The value for chain 1 G114E was around 0.15; that for chain 1 H325R was around 0.12; that for chain 1 T500K was around 0.11.
The value for chain 1 N116H was around 0.093; that for chain 1 Q322R was around 0.11.
